± gives the uncertainty stated by the source.
Experiment: self-splicing fitness, log relative to wild type (ln ratio); higher = more splicing; Tetrahymena group I intron in knt gene, E. coli kanamycin selection, DiMSum; sequences stand for … in CUCUCU…GGAGGGAAAAGUUAUCAGGCAUGCACCUGGUAGCUAGUCUUUAAACCAAUAGAUUGCAUCGGUUUAAAAGGCAAGACCGUCAAAUUGCGGGAAAGGGGUCAACAGCCGUUCAGUACCAAGUCUCAGGGGAAACUUUGAGAUGGCCUUGCAAAGGGUAUGGUAAUAAGCUGACGGACAUGGUCCUAACCACGCAGCCAAGUCCUAAGUCAACAGAUCUUCUGUUGAUAUGGAUGCAGUUCACAGACUAAAUGUCGGUCGGGGAAGAUGUAUUCUUCUCAUAAGAUAUAGUCGGACCUCUCCUUAAUGGGAGCUAGCGGAUGAAGUGAUGCAACACUGGAGCCGCUGGGAACUAAUUUGUAUGCGAAAGUAUAUUGAUUAGUUUUGGAGUACUCGUGGUCG
In short: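 DiMSum derived fitness as the error-weighted combination of fold changes across replicates, kanamycin versus no kanamycin, normalised to wild type. E. coli BL21(DE3) held the library, which randomised all eight P1ex-region intron nucleotides within the knt kanamycin-resistance gene on pET-22b(+). Six replicate transformations grew overnight at 37°C or 30°C on LB agar with or without 25 μg/mL kanamycin, also containing 100 μg/mL carbenicillin, 50 μM IPTG and 0.2% rhamnose, and pooled colonies were amplicon-sequenced on an Illumina HiSeq 2500.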

Row | Sequence | self-splicing fitness (ln) (30 °C) | self-splicing fitness (ln) (37 °C)
1 | CGUCAGCAAUAUUACGAAAC | -3.63 ± 0.32 | -1.6 ± 0.32
2 | AGAGAGCAAUAUUACGUCUU | -2.88 ± 0.19 | -2 ± 0.18
3 | CGGAAGCAAUAUUACGCUCU |  | -1.81 ± 0.44
4 | UUCUAGCAAUAUUACGUAUA | -1.28 ± 0.19 | -0.787 ± 0.25
5 | UUCAAGCAAUAUUACGACGC | -1.27 ± 0.19 | -1.14 ± 0.26
6 | CCUAAGCAAUAUUACGCCAA | -2.22 ± 0.24 | -3.27 ± 0.46
7 | UUCUAGCAAUAUUACGGCGA | -0.698 ± 0.14 | 0.493 ± 0.18
8 | UCCCAGCAAUAUUACGUUCA | -0.991 ± 0.093 | -0.824 ± 0.1
9 | UGGCAGCAAUAUUACGUAUG | -0.256 ± 0.068 | -0.15 ± 0.092
10 | GAAAAGCAAUAUUACGCGUC | -4.29 ± 0.27 | -2.78 ± 0.24
11 | AAGCAGCAAUAUUACGAGCU | -1.2 ± 0.079 | -0.815 ± 0.083
12 | ACGUAGCAAUAUUACGUGGU | -4.03 ± 0.18 | -1.13 ± 0.094
13 | ACCGAGCAAUAUUACGAGAU | -2.96 ± 0.12 | -2.48 ± 0.18
14 | GCACAGCAAUAUUACGCGUU | -1.29 ± 0.053 | -0.545 ± 0.057
15 | GAAAAGCAAUAUUACGACGA | -0.234 ± 0.09 | -0.0451 ± 0.096
16 | CCGCAGCAAUAUUACGAUUC | -3.56 ± 0.19 | -3.03 ± 0.21
17 | CAUUAGCAAUAUUACGUAGC | -3.25 ± 0.19 | -2.4 ± 0.17
18 | AUAUAGCAAUAUUACGGUUC | -3.14 ± 0.17 | -2.5 ± 0.24
19 | UAAAAGCAAUAUUACGUGAG | -0.888 ± 0.044 | -0.622 ± 0.078
20 | ACAUAGCAAUAUUACGUGAA | -2.13 ± 0.093 | -1.18 ± 0.1
21 | AUCCAGCAAUAUUACGGCCG | -1.22 ± 0.097 | -0.00834 ± 0.12
22 | UCGAAGCAAUAUUACGGAAA | -1.95 ± 0.49 | -0.855 ± 0.25
23 | GGAAAGCAAUAUUACGCGCA | -0.291 ± 0.16 | -0.139 ± 0.17
24 | AUCGAGCAAUAUUACGAGGC |  | -1.13 ± 0.28
25 | UGCAAGCAAUAUUACGUGAG | -3.87 ± 0.21 | -2.72 ± 0.18

Row | Sequence | self-splicing fitness (ln) (30 °C) | self-splicing fitness (ln) (37 °C)
26 | AUCCAGCAAUAUUACGUUAG | -3.22 ± 0.17 | -3.56 ± 0.35
27 | CACUAGCAAUAUUACGGCAA | -4.1 ± 0.42 | -2.08 ± 0.18
28 | AACCAGCAAUAUUACGGCUC | -1.34 ± 0.1 | -0.82 ± 0.11
29 | UAGCAGCAAUAUUACGAAAA | -2.56 ± 0.25 | -1.27 ± 0.2
30 | AAGGAGCAAUAUUACGGAGU | -3.24 ± 0.22 | -1.33 ± 0.17
31 | CUAAAGCAAUAUUACGGCAU | -3.69 ± 0.27 | -3.09 ± 0.4
32 | AUAUAGCAAUAUUACGGGGG | -2.92 ± 0.36 | -0.973 ± 0.28
33 | AGAUAGCAAUAUUACGGAUA | -4.2 ± 0.42 | -1.23 ± 0.23
34 | GUCCAGCAAUAUUACGCUCU | -0.327 ± 0.1 | 0.137 ± 0.12
35 | AAAGAGCAAUAUUACGCGAU | -2.63 ± 0.35 | -2.04 ± 0.34
36 | CGCCAGCAAUAUUACGAAGC |  | -1.71 ± 0.19
37 | UUUAAGCAAUAUUACGAGGG | -2.32 ± 0.19 | -1.57 ± 0.23
38 | CUUUAGCAAUAUUACGAUAC | -3.4 ± 0.39 | -2.42 ± 0.45
39 | AGACAGCAAUAUUACGGGCG | -0.665 ± 0.1 | -0.459 ± 0.12
40 | UCUCAGCAAUAUUACGAGAC | -2.81 ± 0.15 | -2.71 ± 0.21
41 | GGCAAGCAAUAUUACGCAGA | -1.23 ± 0.15 | -0.852 ± 0.16
42 | AGGUAGCAAUAUUACGUUCG | -0.889 ± 0.014 | -0.42 ± 0.034
43 | GGUAAGCAAUAUUACGUAUG | -3.72 ± 0.29 | -2.32 ± 0.18
44 | UAUCAGCAAUAUUACGUUCU | -2.22 ± 0.11 | -1.03 ± 0.13
45 | CGGAAGCAAUAUUACGCGGG | -1.64 ± 0.16 | -1.35 ± 0.18
46 | GGUAAGCAAUAUUACGGAUA | -3.17 ± 0.25 | -1.69 ± 0.13
47 | UUGCAGCAAUAUUACGAUUU | -2.64 ± 0.14 | -1.22 ± 0.13
48 | GUUGAGCAAUAUUACGGGUA | -2.46 ± 0.26 | 
49 | UCCCAGCAAUAUUACGGGCU | -1.71 ± 0.066 | -1.32 ± 0.087
50 | CGUAAGCAAUAUUACGAGUU | -3.38 ± 0.17 | -2.6 ± 0.23

Row | Sequence | self-splicing fitness (ln) (30 °C) | self-splicing fitness (ln) (37 °C)
51 | UCAAAGCAAUAUUACGCCGA | -1.49 ± 0.15 | -0.381 ± 0.12
52 | UCUCAGCAAUAUUACGAAGG | -2.79 ± 0.19 | -0.314 ± 0.14
53 | AUAAAGCAAUAUUACGUAUG | -2.13 ± 0.097 | -1.34 ± 0.12
54 | GCAAAGCAAUAUUACGCGAC | -3.4 ± 0.13 | -1.54 ± 0.16
55 | CGAAAGCAAUAUUACGCCAC | -2.32 ± 0.37 | 
56 | GGAUAGCAAUAUUACGUCUA | -0.367 ± 0.087 | -0.516 ± 0.088
57 | UGCUAGCAAUAUUACGAGGU | -2.94 ± 0.27 | -3.27 ± 0.39
58 | CUUAAGCAAUAUUACGGAAG | -2.03 ± 0.17 | -0.419 ± 0.14
59 | UCGCAGCAAUAUUACGCGUG | -3.34 ± 0.15 | -1.44 ± 0.14
60 | AAUAAGCAAUAUUACGUACC | -0.867 ± 0.14 | -0.89 ± 0.15
61 | GGAUAGCAAUAUUACGCGCG | -1.25 ± 0.13 | 0.793 ± 0.15
62 | ACCUAGCAAUAUUACGAGAC | -3.14 ± 0.4 | -1.89 ± 0.24
63 | UUGCAGCAAUAUUACGUCGC | -3.09 ± 0.28 | -2.16 ± 0.35
64 | CCGGAGCAAUAUUACGGUAA | -2.12 ± 0.25 | -3.21 ± 0.4
65 | UCCGAGCAAUAUUACGCGCC | -2.88 ± 0.4 | 
66 | AACGAGCAAUAUUACGAUGG | -3.27 ± 0.16 | -3 ± 0.26
67 | GAGAAGCAAUAUUACGUACU | 0.0719 ± 0.08 | 0.0321 ± 0.11
68 | UGCAAGCAAUAUUACGGGAU | -3.04 ± 0.13 | -2.89 ± 0.15
69 | CUUCAGCAAUAUUACGGCGG | -2.02 ± 0.27 | -1.25 ± 0.18
70 | UGUAAGCAAUAUUACGCCGA | -1.5 ± 0.14 | -1.63 ± 0.18
71 | GUGCAGCAAUAUUACGGGUC | -2.38 ± 0.13 | -0.803 ± 0.14
72 | ACACAGCAAUAUUACGAGCU | -0.901 ± 0.077 | -0.406 ± 0.085
73 | AGUAAGCAAUAUUACGGCAU | -0.486 ± 0.11 | -0.411 ± 0.12
74 | CCGCAGCAAUAUUACGUUAG | -1.11 ± 0.064 | -0.553 ± 0.076
75 | CUCGAGCAAUAUUACGCACC |  | -2.08 ± 0.32

Row | Sequence | self-splicing fitness (ln) (30 °C) | self-splicing fitness (ln) (37 °C)
76 | GCACAGCAAUAUUACGGUGC | -3.09 ± 0.2 | -2.61 ± 0.23
77 | AGUAAGCAAUAUUACGCACA | -0.655 ± 0.082 | -0.356 ± 0.091
78 | GGGUAGCAAUAUUACGAGCG | -1.3 ± 0.12 | -0.426 ± 0.12
79 | GUCGAGCAAUAUUACGGGAC | -3.05 ± 0.22 | -2.05 ± 0.21
80 | UCCUAGCAAUAUUACGAGUC | -2.71 ± 0.31 | 
81 | GCACAGCAAUAUUACGCGCC | -2.56 ± 0.38 | 
82 | GCUGAGCAAUAUUACGGAAC | -2.25 ± 0.3 | -0.857 ± 0.3
83 | UUAAAGCAAUAUUACGGGGU |  | -2.21 ± 0.3
84 | UUGCAGCAAUAUUACGAUGU | -3.3 ± 0.16 | -3.09 ± 0.3
85 | CAUUAGCAAUAUUACGGGCG | -0.183 ± 0.092 | 0.436 ± 0.098
86 | AACCAGCAAUAUUACGUGAG | -0.744 ± 0.04 | -0.39 ± 0.067
87 | GCCAAGCAAUAUUACGUCCU | -2.11 ± 0.11 | -0.408 ± 0.12
88 | GAUGAGCAAUAUUACGACCG | -2.84 ± 0.36 | -1.95 ± 0.43
89 | UAAGAGCAAUAUUACGCGUG | -2.33 ± 0.13 | -1.88 ± 0.13
90 | AUUUAGCAAUAUUACGUCAG | -3.7 ± 0.28 | -0.451 ± 0.2
91 | UAAGAGCAAUAUUACGUAUG | -5.26 ± 0.45 | -2.47 ± 0.34
92 | AUGCAGCAAUAUUACGUCAU | -3.12 ± 0.14 | -2.26 ± 0.12
93 | GCGAAGCAAUAUUACGUGUU | -2.52 ± 0.11 | -2.07 ± 0.11
94 | UGUGAGCAAUAUUACGUGGU | -3.75 ± 0.23 | -1.88 ± 0.17
95 | CCUAAGCAAUAUUACGGAAU | -3.6 ± 0.25 | -2.48 ± 0.19
96 | UGCCAGCAAUAUUACGGCAU | -2.48 ± 0.15 | -3.23 ± 0.26
97 | UCGCAGCAAUAUUACGGGCG | -2.7 ± 0.13 | -0.856 ± 0.12
98 | AUAAAGCAAUAUUACGAGGG | -3.4 ± 0.15 | -1.64 ± 0.12
